The values that follow come from patent US20140057807A1 (UNIVERSITY OF CHICAGO, published 2014).

Experiment [1] concerns the target T1, yeast small ubiquitin-like modifier protein (yeast, UniProt Q12306 3-98 = SUMO).
T1 construct: GST fusion in most phage ELISAs, His-tagged or tag-cleaved elsewhere; also called ySUMO; yeast SUMO
Briefly: SPR. The procedure: (§1) Cradle molecules purified as described above were immobilized via His-tag to an NTA surface using a Biacore™ 2000 instrument so that the theoretical maximum response (Rₘₐₓ) from target binding was 100-200 RU. Target protein at varying concentrations was then flowed over the surface at a flow rate of 30 μL/min and the binding signal recorded. Fitting of kinetic traces was carried out using the BIAevaluation software. For equilibrium experiments, the equilibrium binding response was recorded for multiple target concentrations and fit to a simple 1:1 saturation binding curve.
Background: In SPR one partner is held on a chip, and binding of the other changes the refractive index at the surface.

For experiment [2], the target named is T1, yeast small ubiquitin-like modifier …. Briefly: SPR; column 'Estimated Kd (nM)'. The method, boiled down: (§2)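 Surface plasmon resonance on a Biacore 2000: purified His-tagged molecules were captured on an NTA surface to give a theoretical maximum target response of 100-200 RU. Target at varying concentrations was flowed at 30 μL/min and the binding signal recorded. Estimated Kd came either from kinetic fitting in BIAevaluation software or from equilibrium responses at multiple concentrations fit to a 1:1 saturation binding curve.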

In experiment [3] the target is T2, human Abl SH2 domain (human, UniProt P00519 112-232, limits assumed).
T2 construct: domain: SH2 domain; poly-histidine tagged in selection; tag cleaved for SPR and crystals; also called Ab1SH2; SH2 domain of Abl kinase
T2 sequence (looked up): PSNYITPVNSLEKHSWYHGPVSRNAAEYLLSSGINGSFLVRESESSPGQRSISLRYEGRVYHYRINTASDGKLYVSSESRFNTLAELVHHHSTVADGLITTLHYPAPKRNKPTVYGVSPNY
Put plainly: method not given.

The target of experiment [4] is T2, human Abl SH2 domain. Put plainly: Kd (nM) column of the drawn table; the method for this clone is not stated (SH13 came directly from the phage display library).
The target in experiment [5] is T1, yeast small ubiquitin-like modifier …. Briefly: titration phage ELISA. The procedure: hSUMO1-binding cradle molecules had varied ability to discriminate hSUMO1 and ySUMO as assessed by phage ELISA (FIGS. 25A and 26A).
For phage amplification, E. coli XL1-Blue cells transformed with the LacI containing plasmid pMCSG21 (Stols, et al., Protein Express. Purif. (2007) 53:396-403) (termed “XL21” hereafter) were used. Cradle molecule displaying phage were prepared by growing XL21 cells transfected with phagemid of individual clones in the presence of 0.2 mM IPTG and helper phage K07 (Koide, A., and Koide, S., supra, 2007; Sidhu, et al., supra, 2000). Cultures were then centrifuged and phage containing supernatant used for ELISA assays. All incubations were at room temperature. In all instances except for the phage titration experiment used to test hSUMO1-binding cradle molecule specificity (FIG. 26), wells of a 96-well Microlon© (Greiner) ELISA plate were treated with a 2 μg/mL solution of a GST-fusion of the appropriate target protein, or GST alone in 50 mM Tris Cl buffer containing 150 mM NaCl, pH 7.5 (TBS) and incubated for 1 hour followed by blocking with 0.5% BSA in TBS for 1 hour.
(In general: ELISA stands for enzyme-linked immunosorbent assay.)

Experiment [6] shares this target. Put plainly: titration phage ELISA: His-tagged target captured via BT-Tris-NTA on NeutrAvidin-coated wells, serial 5-fold dilutions of phage supernatant. The method, boiled down:
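Phage ELISA with phage-containing supernatant from XL21 cells grown with 0.2 mM IPTG and helper phage K07. His-tagged target (50 nM) was complexed with BT-Tris NTA on NeutrAvidin-coated, BSA-blocked wells for 30 minutes. A 30% phage supernatant and serial 5-fold dilutions in TBS/0.5% BSA were incubated for 30 minutes at room temperature. Detection used anti-M13-HRP and TMB, quenched with H₂SO₄, with absorbance at 450 nm scaled to 1 cm path-length.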

For experiment [7] the target is unchanged. Put plainly: SPR.
Excerpt: Such high selectivity was unexpected, because the SIM-binding site is the most highly conserved surface between ySUMO and hSUMO proteins (FIG. 16A). […] Thus, it was expected that generating FnIII domain variants that bind to hSUMOs in a mode similar to the ySUMO-binding FnIII domain variants would yield clones with higher isoform selectivity toward hSUMOs.
as §1
This is another data set of the same source.

For experiment [8] the target is unchanged. Put plainly: SPR, fit of the traces to a 1:1 binding model [panel D]. The procedure: as §1
For experiment [9] the target is unchanged. Put plainly: SPR (monobody on the chip via His-tag, target flowed); estimated Kd. The method, then:
as §1

For experiment [10] the target is unchanged. Briefly: SPR (Biacore 2000), monobody immobilised via His-tag on NTA surface, ySUMO flowed over it. The procedure:
as §1

Experiment [11] has the same target. Put plainly: SPR; column 'Estimated Kd (nM)' [Continued]. The gist of the method: as §2
Experiment [12] addresses T2, human Abl SH2 domain. Briefly: phage display selection hit, BL2 library.

Residue numbers refer to the chain shown, from its start. Bounds are passed on as bounds.

T1 sequence (Q12306 3-98 limits assumed): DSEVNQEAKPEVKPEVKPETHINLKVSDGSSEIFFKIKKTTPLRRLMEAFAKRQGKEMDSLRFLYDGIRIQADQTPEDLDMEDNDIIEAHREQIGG

B1: ySMB-8 (designed binder)
chain: VSSVPTKLEVVAATPTSLLISWDAYVGYGSSVAYYRITYGETGGNSPVQEFTVPGSSSTATISGLSPGVDYTITVYAYYYEGDDLYSSMSPISINYRT
notes: variable loops only; library YSGW
The Kd is the equilibrium constant for the complex coming apart. For the molecule B1, the Kd in [1] and in [2] was 350 nM each time.

B2: SH13 (designed binder)
chain: VSSVPTKLEVVAATPTSLLISWDAPAVDFYVYLITYGETGGNSPVQEFTVPGSKSTATISGLSPGVDYTITVYGYSDSWNWPYSPISINYRT
notes: also called SH13 monobody
Turning to B2, the values for the dissociation constant (Kd) with human Abl SH2 domain [3] and with human Abl SH2 domain [4] were approximately 4000 nM and 6800 nM, respectively.

B3: ySMB-5 (designed binder)
chain: VSSVPTKLEVVAATPTSLLISWDAPANSVSYYRITYGETGGNSPVQEFTVPGSSSTATISGLSPGVDYTITVYAYEWYGWGWTYSPISINYRT
notes: as for B1
Take B3: the Kd in experiment [1] and in [2] was 100 nM throughout.

B4: hS1MB-7 (designed binder)
chain: VSSVPTKLEVVAATPTSLLISWDASSSSVSYYEITYGETGGNSPVQEFTVPGSSSTATISGLSPGVDYTITVIAFYSHDDIYISDSPSSINYRT
B4: the “fold weaker binding to ySUMO than to hSUMO1” value (from here on “fold weaker binding”) in [5] is not below 100 fold. For the same molecule, the binding result in [6] was “no binding”.

B5: ySMB-1 (designed binder)
chain: B4 chain with E33R, I73Y, F75Y, H78Y, D79Y, I81L, I83Y, D85Y
notes: it may hold only the diversified positions and not the whole FnIII domain; BC and DE loops are polyserine; also called monobody ySMB-1; FnIII domain variant ySMB-1
One may read the koff as the first-order rate constant of dissociation. High values mean fast dissociation, low ones slow dissociation. One may read the kon as a measure of how fast the partners come together. Low values mean slower complex formation, high ones faster complex formation. Consider B5, for which the equilibrium dissociation constant (Kd) in experiment [7] is 82 nM; in experiment [9] it was 72 nM; in experiment [10] it was 72 nM. Moreover, the koff in [8] stood at 0.09 s⁻¹. The kon in experiment [8] was determined as 1.1e+06 M⁻¹ s⁻¹.

B6: hS1MB-16 (designed binder)
chain: B4 chain with Y31H, E33D, I73Y, F75Y, Y76N, Y82F, S84A, D85Y
On to B6, for which the “fold weaker binding” value in experiment [5] is not below 100 fold.

B7: hS1MB-23 (designed binder)
chain: B4 chain with Y31H, I73Y, F75Y, Y82F, I83Y, S84A, D85F
In the case of B7, in [5], the “fold weaker binding” value is not below 100 fold.

B8: ySMB-2 (designed binder)
chain: VSSVPTKLEVVAATPTSLLISWDASSSSVSYYRITYGETGGNSPVQEFTVPGSSSTATISGLSPGVDYTITVYAYWTYEWGYMYDSPISINYRT
Turning to B8, the Kd in experiment [1] and in [2] was 45 nM each time. Also, the koff in experiment [8] stood at 0.04 s⁻¹. In [8], this molecule registered an association rate constant (kon) of 970000 M⁻¹ s⁻¹.

B9: ySMB-54 (designed binder)
chain: VSSVPTKLEVVAATPTSLLISWDAGYDESVMYYRITYGETGGNSPVQEFTVPGSSSTATISGLSPGVDYTITVYAYREYDGLYYSYSPISINYRT
notes: as for B1
As for B9, the Kd in [11] was 950 nM.

B10: ySMB-53 (designed binder)
chain: VSSVPTKLEVVAATPTSLLISWDASSSSVSYYRITYGETGGNSPVQEFTVPGSSSTATISGLSPGVDYTITVYAYQSFGYNEYWSSGSPISINYRT
notes: as for B1
For the molecule B10, in experiment [11], the Kd was 380 nM.

B11: GG3 (designed binder)
chain: VSSVPTKLEVVAATPTSLLISWDAPAVTVVHYVITYGETGGNSPVQEFTVPGSKSTATISGLSPGVDYTITVYALLSSSHWVYESPISINYRT
Regarding B11, in the experiment with human Abl SH2 domain [12], the binding result is reported as “binds”.

B12: SEQ ID NO 85 (designed binder)
chain: VSSVPTKLEVVAATPTSLLISWDAPAVTVDLYVITYGETGGNSPVQEFTVPGSKSTATISGLSPGVDYTITVYAGWGNWELGYSWSSPISINYRT
In the case of B12, in the experiment with human Abl SH2 domain [12], the binding result is given as “binds”.

B13: SEQ ID NO 81 (designed binder)
chain: VSSVPTKLEVVAATPTSLLISWDAPAVTVDLYLITYGETGGNSPVQEFKVPGSKSTATISGLSPGVDYTITVYAGSDYYYYYQGAYWSPISINYRT
Take B13: in the experiment with human Abl SH2 domain [12], the binding result is “binds”.

B14: SEQ ID NO 82 (designed binder)
chain: VSSVPTKLEVVAATPTSLLISWDAPAVTVDFYVITYGETGGNSPVQEFTVPGSKSTATISGLSPGVDYTITVYANWAYSYRYSPISINYRT
On to B14, for which the binding result with human Abl SH2 domain [12] is on record as “binds”.

B15: SEQ ID NO 84 (designed binder)
chain: B14 chain with F31Y, V33L, N75W, W76D, A77P, S79W, Y80D, R81V, Y82M
For the molecule B15, the binding result with human Abl SH2 domain [12] was “binds”.

B16: SEQ ID NO 83 (designed binder)
chain: B14 chain with D30F, F31Y, T49E, W76Y, A77P, R81M
As to B16, the binding result with human Abl SH2 domain [12] is recorded as “binds”.
